In publication PMC8298264, “Function of cofactor Akirin2 in the regulation of gene expression in model human neutrophil-like HL60 cells” (Bioscience Reports, 2021):

B1: sp¦Q9Y383¦LC7L2_HUMAN (protein, UniProt Q9Y383 1-392, looked up)
Putative RNA-binding protein …: MSAQAQMRAMLDQLMGTSRDGDTTRQRIKFSDDRVCKSHLLNCCPHDVLSGTRMDLGECLKVHDLALRADYEIASKEQDFFFELDAMDHLQSFIADCDRRTEVAKKRLAETQEEISAEVAAKAERVHELNEEIGKLLAKVEQLGAEGNVEESQKVMDEVEKARAKKREAEEVYRNSMPASSFQQQKLRVCEVCSAYLGLHDNDRRLADHFGGKLHLGFIEIREKLEELKRVVAEKQEKRNQERLKRREEREREEREKLRRSRSHSKNPKRSRSREHRRHRSRSMSRERKRRTRSKSREKRHRHRSRSSSRSRSRSHQRSRHSSRDRSRERSKRRSSKERFRDQDLASCDRDRSSRDRSPRDRDRKDKKRSYESANGRSEDRRSSEEREAGEI
B2: sp¦Q96E11¦RRFM_HUMAN (protein, UniProt Q96E11 56-262, looked up)
Ribosome-recycling factor, …: ATKKAKAKGKGQSQTRVNINAALVEDIINLEEVNEEMKSVIEALKDNFNKTLNIRTSPGSLDKIAVVTADGKLALNQISQISMKSPQLILVNMASFPECTAAAIKAIRESGMNLNPEVEGTLIRVPIPQVTREHREMLVKLAKQNTNKAKDSLRKVRTNSMNKLKKSKDTVSEDTIRLIEKQISQMADDTVAELDRHLAVKTKELLG
B3: sp¦P00387¦NB5R3_HUMAN (protein, UniProt P00387 2-301, looked up)
NADH-cytochrome b5 reductase 3: GAQLSTLGHMVLFPVWFLYSLLMKLFQRSTPAITLESPDIKYPLRLIDREIISHDTRRFRFALPSPQHILGLPVGQHIYLSARIDGNLVVRPYTPISSDDDKGFVDLVIKVYFKDTHPKFPAGGKMSQYLESMQIGDTIEFRGPSGLLVYQGKGKFAIRPDKKSNPIIRTVKSVGMIAGGTGITPMLQVIRAIMKDPDDHTVCHLLFANQTEKDILLRPELEELRNKHSARFKLWYTLDRAPEAWDYGQGFVNEEMIRDHLPPPEEEPLVLMCGPPPMIQYACLPNLDHVGHPTERCFVF
B4: sp¦Q9HAV4¦XPO5_HUMAN (protein, UniProt Q9HAV4 2-1204, looked up)
Exportin-5: AMDQVNALCEQLVKAVTVMMDPNSTQRYRLEALKFCEEFKEKCPICVPCGLRLAEKTQVAIVRHFGLQILEHVVKFRWNGMSRLEKVYLKNSVMELIANGTLNILEEENHIKDALSRIVVEMIKREWPQHWPDMLIELDTLSKQGETQTELVMFILLRLAEDVVTFQTLPPQRRRDIQQTLTQNMERIFSFLLNTLQENVNKYQQVKTDTSQESKAQANCRVGVAALNTLAGYIDWVSMSHITAENCKLLEILCLLLNEQELQLGAAECLLIAVSRKGKLEDRKPLMVLFGDVAMHYILSAAQTADGGGLVEKHYVFLKRLCQVLCALGNQLCALLGADSDVETPSNFGKYLESFLAFTTHPSQFLRSSTQMTWGALFRHEILSRDPLLLAIIPKYLRASMTNLVKMGFPSKTDSPSCEYSRFDFDSDEDFNAFFNSSRAQQGEVMRLACRLDPKTSFQMAGEWLKYQLSTFLDAGSVNSCSAVGTGEGSLCSVFSPSFVQWEAMTLFLESVITQMFRTLNREEIPVNDGIELLQMVLNFDTKDPLILSCVLTNVSALFPFVTYRPEFLPQVFSKLFSSVTFETVEESKAPRTRAVRNVRRHACSSIIKMCRDYPQLVLPNFDMLYNHVKQLLSNELLLTQMEKCALMEALVLISNQFKNYERQKVFLEELMAPVASIWLSQDMHRVLSDVDAFIAYVGTDQKSCDPGLEDPCGLNRARMSFCVYSILGVVKRTCWPTDLEEAKAGGFVVGYTSSGNPIFRNPCTEQILKLLDNLLALIRTHNTLYAPEMLAKMAEPFTKALDMLDAEKSAILGLPQPLLELNDSPVFKTVLERMQRFFSTLYENCFHILGKAGPSMQQDFYTVEDLATQLLSSAFVNLNNIPDYRLRPMLRVFVKPLVLFCPPEHYEALVSPILGPLFTYLHMRLSQKWQVINQRSLLCGEDEAADENPESQEMLEEQLVRMLTREVMDLITVCCVSKKGADHSSAPPADGDDEEMMATEVTPSAMAELTDLGKCLMKHEDVCTALLITAFNSLAWKDTLSCQRTTSQLCWPLLKQVLSGTLLADAVTWLFTSVLKGLQMHGQHDGCMASLVHLAFQIYEALRPRYLEIRAVMEQIPEIQKDSLDQFDCKLLNPSLQKVADKRRKDQFKRLIAGCIGKPLGEQFRKEVHIKNLPSLFKKTKPMLETEVLDNDGGGLATIFEP
B5: sp¦Q16822¦PCKGM_HUMAN (protein, UniProt Q16822 33-640, looked up)
Phosphoenolpyruvate …: LSGDLGQLPTGIRDFVEHSARLCQPEGIHICDGTEAENTATLTLLEQQGLIRKLPKYNNCWLARTDPKDVARVESKTVIVTPSQRDTVPLPPGGARGQLGNWMSPADFQRAVDERFPGCMQGRTMYVLPFSMGPVGSPLSRIGVQLTDSAYVVASMRIMTRLGTPVLQALGDGDFVKCLHSVGQPLTGQGEPVSQWPCNPEKTLIGHVPDQREIISFGSGYGGNSLLGKKCFALRIASRLARDEGWLAEHMLILGITSPAGKKRYVAAAFPSACGKTNLAMMRPALPGWKVECVGDDIAWMRFDSEGRLRAINPENGFFGVAPGTSATTNPNAMATIQSNTIFTNVAETSDGGVYWEGIDQPLPPGVTVTSWLGKPWKPGDKEPCAHPNSRFCAPARQCPIMDPAWEAPEGVPIDAIIFGGRRPKGVPLVYEAFNWRHGVFVGSAMRSESTAAAEHKGKIIMHDPFAMRPFFGYNFGHYLEHWLSMEGRKGAQLPRIFHVNWFRRDEAGHFLWPGFGENARVLDWICRRLEGEDSARETPIGLVPKEGALDLSGLRAIDTTQLFSLPKDFWEQEVRDIRSYLTEQVNQDLPKEVLAELEALERRVHKM
B6: sp¦Q9GZY6¦NTAL_HUMAN (protein, UniProt Q9GZY6 1-243, looked up)
Linker for activation of …: MSSGTELLWPGAALLVLLGVAASLCVRCSRPGAKRSEKIYQQRSLREDQQSFTGSRTYSLVGQAWPGPLADMAPTRKDKLLQFYPSLEDPASSRYQNFSKGSRHGSEEAYIDPIAMEYYNWGRFSKPPEDDDANSYENVLICKQKTTETGAQQEGIGGLCRGDLSLSLALKTGPTSGLCPSASPEEDEESEDYQNSASIHQWRESRKVMGQLQREASPGPVGSPDEEDGEPDYVNGEVAATEA
B7: sp¦P63151¦2ABA_HUMAN (protein, UniProt P63151 2-447, looked up)
Serine/threonine-protein …: AGAGGGNDIQWCFSQVKGAVDDDVAEADIISTVEFNHSGELLATGDKGGRVVIFQQEQENKIQSHSRGEYNVYSTFQSHEPEFDYLKSLEIEEKINKIRWLPQKNAAQFLLSTNDKTIKLWKISERDKRPEGYNLKEEDGRYRDPTTVTTLRVPVFRPMDLMVEASPRRIFANAHTYHINSISINSDYETYLSADDLRINLWHLEITDRSFNIVDIKPANMEELTEVITAAEFHPNSCNTFVYSSSKGTIRLCDMRASALCDRHSKLFEEPEDPSNRSFFSEIISSISDVKFSHSGRYMMTRDYLSVKIWDLNMENRPVETYQVHEYLRSKLCSLYENDCIFDKFECCWNGSDSVVMTGSYNNFFRMFDRNTKRDITLEASRENNKPRTVLKPRKVCASGKRKKDEISVDSLDFNKKILHTAWHPKENIIAVATTNNLYIFQDKVN
B8: sp¦Q9BVI4¦NOC4L_HUMAN (protein, UniProt Q9BVI4 1-516, looked up)
Nucleolar complex protein 4 …: MEREPGAAGVRRALGRRLEAVLASRSEANAVFDILAVLQSEDQEEIQEAVRTCSRLFGALLERGELFVGQLPSEEMVMTGSQGATRKYKVWMRHRYHSCCNRLGELLGHPSFQVKELALSALLKFVQLEGAHPLEKSKWEGNYLFPRELFKLVVGGLLSPEEDQSLLLSQFREYLDYDDTRYHTMQAAVDAVARVTGQHPEVPPAFWNNAFTLLSAVSLPRREPTVSSFYVKRAELWDTWKVAHLKEHRRVFQAMWLSFLKHKLPLSLYKKVLLIVHDAILPQLAQPTLMIDFLTRACDLGGALSLLALNGLFILIHKHNLEYPDFYRKLYGLLDPSVFHVKYRARFFHLADLFLSSSHLPAYLVAAFAKRLARLALTAPPEALLMVLPFICNLLRRHPACRVLVHRPHGPELDADPYDPGEEDPAQSRALESSLWELQALQRHYHPEVSKAASVINQALSMPEVSIAPLLELTAYEIFERDLKKKGPEPVPLEFIPAQGLLGRPGELCAQHFTLS
B9: sp¦Q29RF7¦PDS5A_HUMAN (protein, UniProt Q29RF7 1-1337, looked up)
Sister chromatid cohesion …: MDFTAQPKPATALCGVVSADGKIAYPPGVKEITDKITTDEMIKRLKMVVKTFMDMDQDSEDEKQQYLPLALHLASEFFLRNPNKDVRLLVACCLADIFRIYAPEAPYTSHDKLKDIFLFITRQLKGLEDTKSPQFNRYFYLLENLAWVKSYNICFELEDCNEIFIQLFRTLFSVINNSHNKKVQMHMLDLMSSIIMEGDGVTQELLDSILINLIPAHKNLNKQSFDLAKVLLKRTVQTIEACIANFFNQVLVLGRSSVSDLSEHVFDLIQELFAIDPHLLLSVMPQLEFKLKSNDGEERLAVVRLLAKLFGSKDSDLATQNRPLWQCFLGRFNDIHVPVRLESVKFASHCLMNHPDLAKDLTEYLKVRSHDPEEAIRHDVIVTIITAAKRDLALVNDQLLGFVRERTLDKRWRVRKEAMMGLAQLYKKYCLHGEAGKEAAEKVSWIKDKLLHIYYQNSIDDKLLVEKIFAQYLVPHNLETEERMKCLYYLYASLDPNAVKALNEMWKCQNMLRSHVRELLDLHKQPTSEANCSAMFGKLMTIAKNLPDPGKAQDFVKKFNQVLGDDEKLRSQLELLISPTCSCKQADICVREIARKLANPKQPTNPFLEMVKFLLERIAPVHIDSEAISALVKLMNKSIEGTADDEEEGVSPDTAIRSGLELLKVLSFTHPTSFHSAETYESLLQCLRMEDDKVAEAAIQIFRNTGHKIETDLPQIRSTLIPILHQKAKRGTPHQAKQAVHCIHAIFTNKEVQLAQIFEPLSRSLNADVPEQLITPLVSLGHISMLAPDQFASPMKSVVANFIVKDLLMNDRSTGEKNGKLWSPDEEVSPEVLAKVQAIKLLVRWLLGMKNNQSKSANSTLRLLSAMLVSEGDLTEQKRISKSDMSRLRLAAGSAIMKLAQEPCYHEIITPEQFQLCALVINDECYQVRQIFAQKLHKALVKLLLPLEYMAIFALCAKDPVKERRAHARQCLLKNISIRREYIKQNPMATEKLLSLLPEYVVPYMIHLLAHDPDFTRSQDVDQLRDIKECLWFMLEVLMTKNENNSHAFMKKMAENIKLTRDAQSPDESKTNEKLYTVCDVALCVINSKSALCNADSPKDPVLPMKFFTQPEKDFCNDKSYISEETRVLLLTGKPKPAGVLGAVNKPLSATGRKPYVRSTGTETGSNINVNSELNPSTGNRSREQSSEAAETGVSENEENPVRIISVTPVKNIDPVKNKEINSDQATQGNISSDRGKKRTVTAAGAENIQQKTDEKVDESGPPAPSKPRRGRRPKSESQGNATKNDDLNKPINKGRKRAAVGQESPGGLEAGNAKAPKLQDLAKKAAPAERQIDLQR

System: human HL60 cells
Experiment: SWATH-MS proteomics, differential protein representation, akirin2 KO vs WT HL60 cells
Type: cell-based
Conditions: akirin2 KO vs WT HL60 cells, sheet "Under-represented in KO"
In short: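 WT and akirin2 KO HL60 lysates (150 µg, n=3 biological replicates) were FASP trypsin-digested and desalted. A spectral library was built by IDA from 3 µg digests, then 5 µg per sample went to variable-window SWATH DIA over a 120-min 5–30% acetonitrile gradient. Identifications were accepted at 1% global FDR, with total-area-sum normalization.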

Molecule	Fold Change	Log (Fold Change)	Fold Change (SWATH-MS)	Log (Fold Change) (SWATH-MS)
B1	0.3527	-0.4526		
B2			0.7929	-0.1008
B3	0.3747	-0.4263		
B4	0.4142	-0.3828		
B5	0.1415	-0.8493		
B6	0.3739	-0.4273		
B7	0.3625	-0.4407		
B8	0.3572	-0.4471		
B9	0.08984	-1.047		
